Measured values: patent publication US20250114463A1, “LIVER-TARGETED DRUG AND USE THEREOF” (HANMI PHARM. CO., LTD., priority 2021, published 2025)
Bridges are numbered along the chain shown (N, C = ends). Where no end group is shown, it is not given here. [ ]: non-standard residue; d: D form. The star is where a group is joined. Acetyl(2-(4-imidazolyl)) = O=C(Cc1c[nH]cn1)*; Aib = CC(C)(N)C(=O)O

How the values were obtained:
Assay in all cases: cell-based or functional assay
human GCG receptor = human GCG receptor (human, UniProt P47871 26-477)
human GIP receptor = target: T1, human GIP receptor (human, UniProt P48546 22-466)
T1 sequence (looked up): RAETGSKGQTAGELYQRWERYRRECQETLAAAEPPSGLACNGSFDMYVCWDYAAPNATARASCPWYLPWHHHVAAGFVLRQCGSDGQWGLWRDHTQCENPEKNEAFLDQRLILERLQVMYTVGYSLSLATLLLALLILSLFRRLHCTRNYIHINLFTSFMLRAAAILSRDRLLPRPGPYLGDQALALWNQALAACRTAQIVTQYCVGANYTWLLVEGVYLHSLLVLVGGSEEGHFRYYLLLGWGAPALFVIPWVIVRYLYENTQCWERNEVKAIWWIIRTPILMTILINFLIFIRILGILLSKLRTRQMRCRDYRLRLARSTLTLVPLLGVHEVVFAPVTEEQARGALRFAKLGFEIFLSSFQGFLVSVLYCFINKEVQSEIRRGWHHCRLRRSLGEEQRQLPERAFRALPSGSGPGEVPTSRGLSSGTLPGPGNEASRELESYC

human GLP-1 receptor = human GLP-1 receptor (human, UniProt P43220 24-463)

Sequence of human GCG receptor (P47871 26-477): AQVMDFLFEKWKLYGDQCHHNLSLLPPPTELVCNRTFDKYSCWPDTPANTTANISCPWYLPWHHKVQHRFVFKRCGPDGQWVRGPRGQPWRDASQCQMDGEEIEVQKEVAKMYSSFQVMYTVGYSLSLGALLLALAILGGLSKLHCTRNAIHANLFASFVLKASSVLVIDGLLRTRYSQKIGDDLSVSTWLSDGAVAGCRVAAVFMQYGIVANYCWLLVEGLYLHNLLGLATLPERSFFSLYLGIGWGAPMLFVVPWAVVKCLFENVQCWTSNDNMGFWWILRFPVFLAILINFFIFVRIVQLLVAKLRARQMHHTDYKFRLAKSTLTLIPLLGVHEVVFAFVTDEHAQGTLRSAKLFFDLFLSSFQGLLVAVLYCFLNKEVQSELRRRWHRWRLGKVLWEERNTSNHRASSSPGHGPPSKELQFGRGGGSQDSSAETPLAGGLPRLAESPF

Y[Aib]QGTFTSDYSKYLDEKRAKEFVQWLLDHCPSSGQPPPS-NH2 (bridge 16-20) [triple agonist of SEQ ID NO: 96]
in vitro Activity Compared to Native Peptide (%), vs Glucagon (human GCG receptor): 195% | in vitro Activity Compared to Native Peptide (%), vs GIP (human GIP receptor): 5.2% | in vitro Activity Compared to Native Peptide (%), vs GLP-1 (human GLP-1 receptor): 34.4%

Y[Aib]QGTFTSDYSKALDEKAAKDFVNWLLDHHPSSGQPPPSC (bridge 16-20; not fully specified (C-terminus)) [triple agonist of SEQ ID NO: 99]
in vitro Activity Compared to Native Peptide (%), vs Glucagon (human GCG receptor): 14.9% | in vitro Activity Compared to Native Peptide (%), vs GIP (human GIP receptor): 57.7% | in vitro Activity Compared to Native Peptide (%), vs GLP-1 (human GLP-1 receptor): 20.9%

[Acetyl(2-(4-imidazolyl))]GEGTFISDLSKYMDEQAVQLFVEWLMAGGPSSGAPPPSHG-NH2 [triple agonist of SEQ ID NO: 12]
in vitro Activity Compared to Native Peptide (%), vs Glucagon (human GCG receptor): < 0.1% | in vitro Activity Compared to Native Peptide (%), vs GIP (human GIP receptor): < 0.1% | in vitro Activity Compared to Native Peptide (%), vs GLP-1 (human GLP-1 receptor): 0.4%

Y[Aib]QGTFTSDYSKALDEKAAKEFVNWLLDQHPSSGQPPPSC (bridge 16-20; not fully specified (C-terminus); also: ring type not given here) [triple agonist of SEQ ID NO: 101]
in vitro Activity Compared to Native Peptide (%), vs Glucagon (human GCG receptor): 13.9% | in vitro Activity Compared to Native Peptide (%), vs GIP (human GIP receptor): 40.1% | in vitro Activity Compared to Native Peptide (%), vs GLP-1 (human GLP-1 receptor): 23.2%

Y[Aib]QGTFTSDYSKALDEKAAKDFVNWLLDQHPSSGQPPPSC (bridge 16-20; not fully specified (C-terminus); also: ring type not given here) [triple agonist of SEQ ID NO: 102]
in vitro Activity Compared to Native Peptide (%), vs Glucagon (human GCG receptor): 29.5% | in vitro Activity Compared to Native Peptide (%), vs GIP (human GIP receptor): 58% | in vitro Activity Compared to Native Peptide (%), vs GLP-1 (human GLP-1 receptor): 23.3%

[Acetyl(2-(4-imidazolyl))]GEGTFTSDLSKYLDSRRQQLFVQWLKAGGPSSGAPPPSHG-NH2 [triple agonist of SEQ ID NO: 11]
in vitro Activity Compared to Native Peptide (%), vs Glucagon (human GCG receptor): < 0.1% | in vitro Activity Compared to Native Peptide (%), vs GIP (human GIP receptor): < 0.1% | in vitro Activity Compared to Native Peptide (%), vs GLP-1 (human GLP-1 receptor): 1.4%

H[Aib]QGTFTSDVSKYLDGQAAQEFVAWLLAGGGPSSGAPPPSC-NH2 [triple agonist of SEQ ID NO: 10]
in vitro Activity Compared to Native Peptide (%), vs Glucagon (human GCG receptor): < 0.1% | in vitro Activity Compared to Native Peptide (%), vs GIP (human GIP receptor): < 0.1% | in vitro Activity Compared to Native Peptide (%), vs GLP-1 (human GLP-1 receptor): 46%

[Acetyl(2-(4-imidazolyl))][Aib]QGTFTSDYSKYLDEKRQKEFVNWLLAQKC (bridge 16-20; not fully specified (C-terminus)) [triple agonist of SEQ ID NO: 93]
in vitro Activity Compared to Native Peptide (%), vs Glucagon (human GCG receptor): 0.3% | in vitro Activity Compared to Native Peptide (%), vs GIP (human GIP receptor): 0.7% | in vitro Activity Compared to Native Peptide (%), vs GLP-1 (human GLP-1 receptor): 5.7%

Y[Aib]QGTFTSDYSKYLDEKRAKEFVQWLLCHHPSSGQPPPS (bridge 16-20; not fully specified (C-terminus)) [triple agonist of SEQ ID NO: 95]
in vitro Activity Compared to Native Peptide (%), vs Glucagon (human GCG receptor): 0.4% | in vitro Activity Compared to Native Peptide (%), vs GIP (human GIP receptor): < 0.1% | in vitro Activity Compared to Native Peptide (%), vs GLP-1 (human GLP-1 receptor): 2.1%

[Acetyl(2-(4-imidazolyl))]GEGTFISDYSIQLDEIAVQDFVEWLLAQKPSSGAPPPSHG-NH2 [triple agonist of SEQ ID NO: 13]
in vitro Activity Compared to Native Peptide (%), vs Glucagon (human GCG receptor): < 0.1% | in vitro Activity Compared to Native Peptide (%), vs GIP (human GIP receptor): < 0.1% | in vitro Activity Compared to Native Peptide (%), vs GLP-1 (human GLP-1 receptor): < 0.1%

Y[Aib]QGTFTSDYSKYLDEKRAKEFVQWLLDCHPSSGQPPPS (bridge 16-20; not fully specified (C-terminus)) [triple agonist of SEQ ID NO: 97]
in vitro Activity Compared to Native Peptide (%), vs Glucagon (human GCG receptor): 62.8% | in vitro Activity Compared to Native Peptide (%), vs GIP (human GIP receptor): 2.6% | in vitro Activity Compared to Native Peptide (%), vs GLP-1 (human GLP-1 receptor): 10.5%

[Acetyl(2-(4-imidazolyl))][Aib]QGTFTSDYSIAMDEIHQKDFVNWLLAQKC (bridge 16-20; not fully specified (C-terminus)) [triple agonist of SEQ ID NO: 92]
in vitro Activity Compared to Native Peptide (%), vs Glucagon (human GCG receptor): < 0.1% | in vitro Activity Compared to Native Peptide (%), vs GIP (human GIP receptor): 0.4% | in vitro Activity Compared to Native Peptide (%), vs GLP-1 (human GLP-1 receptor): 0.8%

[Acetyl(2-(4-imidazolyl))][Aib]QGTFTSDYSIAMDEIHQKDFVNWLLNTKC (bridge 16-20; not fully specified (C-terminus)) [triple agonist of SEQ ID NO: 94]
in vitro Activity Compared to Native Peptide (%), vs Glucagon (human GCG receptor): < 0.1% | in vitro Activity Compared to Native Peptide (%), vs GIP (human GIP receptor): < 0.1% | in vitro Activity Compared to Native Peptide (%), vs GLP-1 (human GLP-1 receptor): 0.5%

Y[Aib]QGTFTSDYSKALDEKAAKEFVQWLLDQHPSSGQPPPSC (bridge 16-20; not fully specified (C-terminus); also: ring type not given here) [triple agonist of SEQ ID NO: 100]
in vitro Activity Compared to Native Peptide (%), vs Glucagon (human GCG receptor): 12.7% | in vitro Activity Compared to Native Peptide (%), vs GIP (human GIP receptor): 118% | in vitro Activity Compared to Native Peptide (%), vs GLP-1 (human GLP-1 receptor): 42.2%

Y[Aib]QGTFTSDYSKALDEKAAKEFVNWLLDHHPSSGQPPPSC (bridge 16-20; not fully specified (C-terminus)) [triple agonist of SEQ ID NO: 98]
in vitro Activity Compared to Native Peptide (%), vs Glucagon (human GCG receptor): 8.2% | in vitro Activity Compared to Native Peptide (%), vs GIP (human GIP receptor): 47.1% | in vitro Activity Compared to Native Peptide (%), vs GLP-1 (human GLP-1 receptor): 28.1%

[Acetyl(2-(4-imidazolyl))][Aib]EGTFTSDYSIAMDEIHQKDFVDWLLAEKC (bridge 16-20; not fully specified (C-terminus)) [triple agonist of SEQ ID NO: 91]
in vitro Activity Compared to Native Peptide (%), vs Glucagon (human GCG receptor): 16.8% | in vitro Activity Compared to Native Peptide (%), vs GIP (human GIP receptor): 0.3% | in vitro Activity Compared to Native Peptide (%), vs GLP-1 (human GLP-1 receptor): 31.9%
